# What was measured:
# [1] = system: Fibroblasts (MEF) from a fetal p53 hetero-deficient mouse having the Nanog reporter; assay: Establishment of iPS cells (GFP-positive colonies) from MEFs with 4 factors and a p53 inhibitor; type: cell-based; settings: 4 factors; 6 nM in medium from day 6; counted on day 20; compared with cells treated with DMSO
# Procedure: The effects of a p53 inhibitor on the efficiency of establishment of iPS cells were examined. The retrovirus used for reprogramming was prepared by introducing a retrovirus expression vector (pMXs-Oct3/4, pMXs-Sox2, pMXs-Klf4, pMXs-cMyc) into Plat-E cells that had been sown to a 6-well culture plate (Falcon) at 0.6×10^6 cells per well on the previous day. The culture broth used was DMEM/10% FCS (DMEM (Nacalai tesque) supplemented with 10% fetal bovine serum), and cultured at 37° C. and 5% CO2. For vector transfer, 4.5 μL of the FuGene6 transfection reagent (Roche) was placed in 100 μL of Opti-MEM I Reduced-Serum Medium (Invitrogen), and this mixture was allowed to stand at room temperature for 5 minutes. Thereafter, 1.5 μg of each expression vector was added, and the mixture was further allowed to stand at room temperature for 15 minutes, and then added to Plat-E culture broth. On day 2, the Plat-E supernatant was exchanged with a fresh supply of the medium; on day 3, the culture supernatant was recovered and filtered through a 0.45 μm sterile filter (Whatman), polybrene (Nacalai) was added to obtain a concentration of 4 μg/mL, and this was used as the viral liquid.
# Fibroblasts (MEF) were isolated from a fetal p53 hetero-deficient mouse having the Nanog reporter (13.5 days after fertilization). […] GFP-positive colonies were counted on day 20. […]
# HDF = assay: iPS cell generation from HDF with p53-regulated genes, with or without the p53 shRNA; type: cell-based, human; settings: four factors and the p53 shRNA; colonies counted day 28
# Source text: Genes regulated (4 increased and 7 decreased) by p53 suppression were introduced into HDFs together with the four reprogramming factors (FIG. 24A) or the four reprogramming factors and the p53 shRNA (FIG. 24B). On day 24 (FIG. 24A) or day 28 (FIG. 24B) post-transduction, numbers of iPS cell colonies were counted. **; p<0.01 compared to DsRed control (n=3).
# Among these we transduced four increased genes and seven decreased genes by retroviruses into HDF, together with either the four reprogramming factors alone, or with the four factors and the p53 shRNA.
# p53-null MEF = assay: iPS cell generation from p53-null MEF with forced expression of p21; type: cell-based, mouse
# [2] = system: Oct4-GFP, p53-heterozygous MEF; assay: iPS generation by the three factors co-transduced with wild-type or mutant p53, p53-heterozygous MEFs; type: cell-based, mouse; settings: retroviral co-transduction, counted 28 days after transduction
# Source text: (§1) FIGS. 13A and 13B show iPS generation from p53 heterozygous or homozygous MEFs by the three factors co-transduced with wild-type or mutant p53. […] After retroviral transduction, 5000 cells were collected and GFP-positive colonies were counted 28 days after the transduction. Data of three independent experiments are shown. […] After retroviral transduction, 5000 live cells were collected and GFP-positive colonies were counted 28 days after the transduction. Data of two independent experiments are shown.
# (§2) We used either the Nanog-GFP or Oct3/4-GFP reporter system for sensitive and specific identification of iPS cells (Okita K. et al. Nature 448, 313 (2007)). […] The cells were infected next day (day 0) with retrovirus made from Plat-E. On day 5, cells were reseeded either at one cell per well of 96-plates by a cell sorter (FACS Aria, Beckton Dekinson) or 5000 cells per 100 mm-dish. Puromycin selection ([…]) was initiated on day 13 in the four-factor protocol and on day 19 in the three factor protocol. Numbers of GFP positive colonies were determined on day 21 for the four-factor protocol and on day 28 in the three factor protocol.
# (§3) First, we tested the effect of dominant negative mutants of p53 on the generation of iPS cells. […] After sequencing verification, cDNA was transferred to pMXs-gw by Gateway cloning technology (Invitrogen). […]
# [3] = system: Fibroblasts (MEFs) from a fetal p53 hetero-deficient mouse having a Nanog reporter; assay: Establishment of iPS cells from MEFs with 4 or 3 factors and the dominant negative mutant p53P275S; type: cell-based; settings: compared with mutation-free p53 or DsRedExpress
# Procedure: The function of endogenous p53 was inhibited using a dominant negative mutant of p53, and its influence on the efficiency of establishment of iPS cells was investigated. The dominant negative mutant used was p53P275S, prepared by causing a point mutation of the proline at the position 275 located in the genome-binding region of p53 to serine (Annemieke de Vries (2002). PNAS 99, 2948-2953).
# The retrovirus used for reprogramming was prepared by introducing retrovirus expression vector (pMXs-Oct3/4, pMXs-Sox2, pMXs-Klf4, pMXs-cMyc, pMXs-p53P275S) into Plat-E cells that had been sown to a 6-well culture plate (Falcon) at 0.6×10^6 cells per well on the previous day (for how to prepare pMXs-p53P275S, see Example 6 below). The culture broth used was DMEM/10% FCS (DMEM (Nacalai tesque) supplemented with 10% fetal bovine serum), and cultured at 37° C. and 5% CO2. For vector transfer, 4.5 μL of the FuGene6 transfection reagent (Roche) was placed in 100 μL of Opti-MEM I Reduced-Serum Medium (Invitrogen), and this mixture was allowed to stand at room temperature for 5 minutes. Thereafter, 1.5 μg of each expression vector was added, and the mixture was further allowed to stand at room temperature for 15 minutes, and then added to Plat-E culture broth. […]
# GFP-positive colonies were counted on day 21 for the 4 factors, and on day 28 for the 3 factors. […]
# Nanog-GFP, p53-null MEFs = assay: iPS generation by the three factors co-transduced with wild-type or mutant p53, p53-null MEFs; type: cell-based, mouse; settings: retroviral co-transduction, counted 28 days after transduction
# Source text: as §1, §2, §3
molecule,measurement,setting,value
"O=[N+]([O-])c1ccc(-c2cn3c4c(sc3n2)CCCC4)cc1 [Pifithrin α, p-Nitro, Cyclic, 2-(4-Nitrophenyl)imidazo[2,1-b]-5,6,7,8-tetrahydrobenzothiazole]",increase in the number of GFP-positive colonies,[1],about 4 times
"p21: cyclin-dependent kinase inhibitor 1A (p21, Cip1), p53 target gene, forcibly expressed by retrovirus",counteraction of the effect of the p53 shRNA on iPS cell generation,HDF,effectively counteracted
same,iPS cell generation,p53-null MEF,markedly decreased
"p53P275S: dominant negative mutant of mouse p53, proline 275 to serine, expressed from retroviral vector pMXs-p53P275S (protein, UniProt P02340 1-390, looked up, variant P275S) Cellular tumor antigen p53: MTAMEESQSDISLELPLSQETFSGLWKLLPPEDILPSPHCMDDLLLPQDVEEFFEGPSEALRVSGAPAAQDPVTETPGPVAPAPATPWPLSSFVPSQKTYQGNYGFHLGFLQSGTAKSVMCTYSPPLNKLFCQLAKTCPVQLWVSATPPAGSRVRAMAIYKKSQHMTEVVRRCPHHERCSDGDGLAPPQHLIRVEGNLYPEYLEDRQTFRHSVVVPYEPPEAGSEYTTIHYKYMCNSSCMGGMNRRPILTIITLEDSSGNLLGRDSFEVRVCACSGRDRRTEEENFRKKEVLCPELPPGSAKRALPTCTSASPPQKKKPLDGEYFTLKIRGRKRFEMFRELNEALELKDAHATEESGDSRAHSSYLKTKKGQSTSRHKKTMVKKVGPDSD",number of GFP-positive colonies / efficiency of iPS cell generation,[2],substantial increase
same,increase in the number of GFP-positive colonies,"[3]; 3 factors, counted on day 28",about 3 times
same,increase in the number of GFP-positive colonies,"[3]; 4 factors, counted on day 21",about 4 times
"S58A: transactivation-negative mouse p53 mutant, serine 58 to alanine, retrovirally expressed (protein, UniProt P02340 1-390, looked up, variant S58A) Cellular tumor antigen p53: MTAMEESQSDISLELPLSQETFSGLWKLLPPEDILPSPHCMDDLLLPQDVEEFFEGPAEALRVSGAPAAQDPVTETPGPVAPAPATPWPLSSFVPSQKTYQGNYGFHLGFLQSGTAKSVMCTYSPPLNKLFCQLAKTCPVQLWVSATPPAGSRVRAMAIYKKSQHMTEVVRRCPHHERCSDGDGLAPPQHLIRVEGNLYPEYLEDRQTFRHSVVVPYEPPEAGSEYTTIHYKYMCNSSCMGGMNRRPILTIITLEDSSGNLLGRDSFEVRVCACPGRDRRTEEENFRKKEVLCPELPPGSAKRALPTCTSASPPQKKKPLDGEYFTLKIRGRKRFEMFRELNEALELKDAHATEESGDSRAHSSYLKTKKGQSTSRHKKTMVKKVGPDSD",number of GFP-positive colonies,"Nanog-GFP, p53-null MEFs",weaker effects
"D278N: transactivation-negative mouse p53 mutant, aspartic acid 278 to asparagine, retrovirally expressed (protein, UniProt P02340 1-390, looked up, variant D278N) Cellular tumor antigen p53: MTAMEESQSDISLELPLSQETFSGLWKLLPPEDILPSPHCMDDLLLPQDVEEFFEGPSEALRVSGAPAAQDPVTETPGPVAPAPATPWPLSSFVPSQKTYQGNYGFHLGFLQSGTAKSVMCTYSPPLNKLFCQLAKTCPVQLWVSATPPAGSRVRAMAIYKKSQHMTEVVRRCPHHERCSDGDGLAPPQHLIRVEGNLYPEYLEDRQTFRHSVVVPYEPPEAGSEYTTIHYKYMCNSSCMGGMNRRPILTIITLEDSSGNLLGRDSFEVRVCACPGRNRRTEEENFRKKEVLCPELPPGSAKRALPTCTSASPPQKKKPLDGEYFTLKIRGRKRFEMFRELNEALELKDAHATEESGDSRAHSSYLKTKKGQSTSRHKKTMVKKVGPDSD",number of GFP-positive colonies,"Nanog-GFP, p53-null MEFs",weaker effects
